From paper PMC5957452, “Structural basis for overhang excision and terminal unwinding of DNA duplexes by TREX1” (PLoS Biology, 2018)

Molecular target: the molecule itself
Experiment: crystal structure; TREX1 (15-25 mg/mL) in 300 mM NaCl, 50 mM Tris-HCl pH 7.0 mixed with DNA substrates at molar ratio 1:1.5; four TREX1-DNA complex crystals, TREX1 dimer in the asymmetric unit

B1: Three prime repair exonuclease 1 (TREX1), mouse, residues 1-242 (C-terminal transmembrane domain truncated) (enzyme, Mus musculus, UniProt Q91XB0 1-242, looked up)
chain: MGSQTLPHGHMQTLIFLDLEATGLPSSRPEVTELCLLAVHRRALENTSISQGHPPPVPRPPRVVDKLSLCIAPGKACSPGASEITGLSKAELEVQGRQRFDDNLAILLRAFLQRQPQPCCLVAHNGDRYDFPLLQTELARLSTPSPLDGTFCVDSIAALKALEQASSPSGNGSRKSYSLGSIYTRLYWQAPTDSHTAEGDVLTLLSICQWKPQALLQWVDEHARPFSTVKPMYGTPATTGTT
notes: TREX1, Mus musculus, residues 1-242, subcloned into the BamHI/XhoI site of pET28a; C-terminal transmembrane domain truncated; His-tagged or non-His-tagged (thrombin-treated) TREX1 was used for crystallization; Crystals also hold DNA substrates and Mg2+; also called mTREX1; wild-type TREX1; source: E. coli BL21-CodonPlus(DE3)-RIPL or Rosetta2(DE3)pLysS, purified (Ni-NTA, HiTrap Heparin, Superdex …)
binding result: binds
